The values below come from patent publication US20250084164A1 (NEXTCURE, published 2025).

Experiment [1] has as its target T1, monomeric LAIR-1-His (R&D Systems) (UniProt Q6GTX8 22-163).
T1 chain: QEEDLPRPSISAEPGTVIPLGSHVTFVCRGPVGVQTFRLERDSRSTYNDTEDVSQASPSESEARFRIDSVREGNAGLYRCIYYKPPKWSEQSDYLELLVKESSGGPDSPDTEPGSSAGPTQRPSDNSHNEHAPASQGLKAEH
The experiment in a line: BLI (Octet RED96). For orientation: Biolayer interferometry detects binding as a change in optical thickness at a sensor tip.

Experiment [2] has as its target T2, monomeric LAIR-1-His (R&D Systems) (UniProt Q6GTX8 22-163, limits assumed).
T2 construct: Bought protein
T2 sequence (looked up): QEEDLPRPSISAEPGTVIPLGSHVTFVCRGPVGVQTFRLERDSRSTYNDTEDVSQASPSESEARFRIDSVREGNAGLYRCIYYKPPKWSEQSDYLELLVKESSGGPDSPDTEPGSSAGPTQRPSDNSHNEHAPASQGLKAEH
The experiment in a line: BLI (Octet RED96), chimeric mAb on anti-human IgG sensor, monomeric LAIR-1-His in solution. The procedure:
Anti-human IgG capture sensors were used to bind to chimeric LAIR-1 mAbs at a density to ensure 1:1 binding to monomeric LAIR-1-His (R&D Systems) in solution at various concentrations. Assay buffer was PBS with 0.05% Tween-20 and regeneration buffer was 10 mM glycine pH 1.5. First, chimeric LAIR-1 mAbs were loaded to sensor. This was followed by association step with LAIR-1-His, and a dissociation step in a separate LAIR-1-His free well. Data was processed using ForteBio data analysis software 9.0. A global fit was used following subtraction of reference wells. The reported average KD values are from at least three independent Octet runs with high confidence of accuracy based on X2 and R2 values. Note the two chimeric versions of 12E10 were tested. Both had relatively low affinity, while the 12E10V2 mAb was removed from usage due to very low affinity.

B1: chimeric LAIR-1 mAb 6B2 (antibody, V domains shown)
VH: EVQLVESGGGLVQPKGSLKLSCAASGFSFNINAMNWVRQAPGKGLEWVARIRSKSNNYETYYADSVKDRFTISRDDSESMVYLQMNNLKTEDTAMYYCVRSLWFVYWGQGTLVTVSA
VL: DIQMTQSPASQSASLGESVTITCLASQTIGTWLAWYQQKPGKSPQLLIYAATSLADGVPSRFSGSGSGTKFSFKISSLQAEDFVSYYCQQLYSTPLTFGAGTKLELK
In general, Kd refers to the constant that tells how readily two partners part at equilibrium. As to B1, the Kd in experiment [1] is 6.53 nM.

B2: 9H6 (antibody, V domains shown)
VH: EVQLVESGGGLVQPKGSLKLSCAASGFSFNTHAMNWVRQAPGKGLEWVARIRTKSNNYATYYADSVKDRFIISRDDSENMVYLQMNNLKTEDTAIYYCVRLRGGFLDYWGQGTTLTVSS
VL: DIQMTQSPASQSASLGESVTITCLASQTIGTWLAWYQQKPGRSPQLLIYAATSLADGVPSRFSGSGSGTKFSFKINSLQAEDFVSYYCQQLYSTPFTFGSGTKLEIK
In experiment [1], B2 came in with a Kd of 11.6 nM.

B3: chimeric 6G6 (antibody, V domains shown)
VH: EVQLQQSGPELVKPGASVKISCKASGYTFTTYYMNWVKQSHGKSLEWIGNINPDNGITSYNQKFKGKATLTVDKSSSTAYMELRSLTSEDSAVYYCARGKSLAYWGQGTLVTVSA
VL: DIVMTQSHKFMSTSVGDRVSITCKASQNVGTAVAWYQQKPGQSPKLLIYWASIRHTGVPDRFTGSGSGTDFTLTISNVQSEDLADYFCQQYSSHPYTFGGGTKLEIK
notes: Chimeric mAb
With B3, the values for the Kd in experiment [1] and in experiment [2] were 4.7 nM and less than 5 nM, respectively.

B4: chimeric LAIR-1 mAb 4B3 (antibody, V domains shown)
VH: QIQLQQSGAELARPGASVKLPCKASDYIFISYGLNWVRQTTGQGLEWIGEIYPRSGHTYYNEKFKGKATLTADKSSSTAYMELRSLTSEDSAVYFCARRSVFYDYDKNGFDYWGQGTTLTVSS
VL: DIVMKQSPSSLRVSAGEKVTMSCKSSQSLLNSGNQKNYLAWYQQKPGQPPKLLIYGASTRESGVPDRFTGSGSGTDFALTISSVQAEDLAVYYCQNDHSYPFTFGSGTKLEIK
In experiment [1], B4 displayed a dissociation constant Kd of 32.3 nM.

B5: 12E10V1 (antibody, V domains shown)
VH: QVQLQQSGAELARPGTSVKLSCKASGYTFTSCGLSWVKQRTGQGLEWIGEIYPSNGNSYYSDKVKDKATLTADKSSSTAYMELRSLTSEDSAVYFCARAYYTNGYYAMDYWGQGTSVTVSS
VL: DIVMTQSQKFMSTSVGDRVSITCKASQNVRSAVAWYQQKPGQSPKTLIYLASNRHTGVPDRFTGSGSGTDFTLTISNVQSEDLADYFCLQHWNYPLTFGAGTKLELK
B5 yielded a Kd in experiment [1] of 20.2 nM.

B6: chimeric 1E11 (antibody, V domains shown)
VH: QVQLQQSGPELVKPGASVKLSCKASGYTFTSYDINWVKQRPGQGLEWIGWIYPRDGSTKYNEKLKGKATLTVDTSSRTAYMELHSLTSEDSAVYFCARGGYYDYDGYWGQGTLVTVSA
VL: DIVMTQAAFSNPVTLGTSASISCRSSKSLLHSNGITYLYWYLQKPGQSPQVLIYQMSSLASGVPDRFSSSGSGTEFTLRISRVEAEDVGVYYCAQNLELPLTFGAGTKLELK
notes: Chimeric mAb (mouse variable, human constant)
Consider B6, for which the Kd in experiment [1] was 1.37 nM; in experiment [2], less than 5 nM.

B7: chimeric LAIR-1 mAb 7G3 (antibody, V domains shown)
VH: QVQLQQSGPELVKPGASVKLSCKASGYTFTTYDINWVKQRPGQGLEWIGWIYPRDGTTKYNEKFKGKATLTVDTSSTTAYMELHSLTSEDSAVYFCARGGYYDYDGYWGQGTLVTVSA
VL: DIVMTQAAFSNPVTLGTSASISCRSSKSLLHSNGITYLYWYLQKPGQSPQVLIYQMSNLASGVPDRFSSSGSGTEFTLRISRVEAEDVGVYYCAQNLEFPLTFGAGTKLELK
notes: Chimeric mAb
For the molecule B7, the Kd is 1.63 nM in experiment [1] and less than 5 nM in experiment [2].

B8: chimeric LAIR-1 mAb 5A6 (antibody, V domains shown)
VH: QVQLQQSGAELARPGASVKLSCKASGYTFTSYGISWVKQRTGQGLEWIGEIYPRRGNTYYNEKFKGKATLTADKSSSTAYMELRSLTSEDSAVYFCARQLFAYWGQGTLVTVSA
VL: DIQMTQSPSSLSASLGERVSFSCRASQDIGSSLNWLQQEPDGTIKRLIYATSSLDSGVPKRFSGSRSGSDYSLTISSLESEDFVEYYCLQYDSFPYTFGGGTKLEIK
In experiment [1], B8 came in with an equilibrium dissociation constant (Kd) of 23.3 nM.

B9: chimeric LAIR-1 mAb 6F4 (antibody, V domains shown)
VH: QVQLQQSGAELAKPGASVKLSCKASGYTFTSYWMHWVKQRPGQGLEWIGYINPFSGHTKYNQKFKDKATLTADKSSSTAYMQLSSLTYEDSAVYYCARNFDQWGQGTTLTVSS
VL: DIKMTQSPSSMYASLGERVTITCKASQDINSYLSWVQQKPGKSPKTLIDRANRLVDGVPSRFSGSGSGQDYSLTISSLEYEDMGIYYCLQYDEFPPYTFGGGTKLEIK
Molecule B9 came in with a Kd in experiment [1] of 12.8 nM.

B10: chimeric 11B3 (antibody, V domains shown)
VH: EVQLVESGGGLVQPKGSLKLSCAASDFTFNTYAMHWVRQAPGKGLEWVARIRTKSNNYATYYADSVKDRFTISRDDSQSMLYLQMNNLTTEDTAMYYCVRDRYGGAMDYWGQGTSVTVSS
VL: DIQMAQSSSSFSVSLGDRVTITCKASEDIYIRLAWYQQKPGNAPRLLISTATSLETGVPSRFSGSGSGKDYTLSITSLQTEDVATYYCQQYWSTPYTFGGGTRLEIK
notes: Chimeric mAb
With B10, the results for the Kd in experiment [1] and in experiment [2] were 1.98 nM and less than 5 nM, respectively.

B11: chimeric 5E1 (antibody, V domains shown)
VH: EVQLQQSGPELVKPGASVKISCKASGYSFTGYFMNWVKQSPEKSLEWIGEIHPSTGSIIYNQKFKAKATLTIDKSSSTAYMQLKSLTSEDSAVYYCARFDYSNSFAYWGQGTLVTVSA
VL: DIQMTQTTSSLSASLGDRVTISCRASQDISNYLNWYQQKPDGTVKLLIYYTSRLHSGVPSRFSGSGSGTDYSLTISNLEQEDIATYFCQQGNTLPRTFGGGTKLEIK
notes: Chimeric mAb
Turning to B11, the Kd in experiment [1] is 3.92 nM; in experiment [2], less than 5 nM.
